The values that follow come from patent US20240165165A1, “PHARMACEUTICAL COMPOSITIONS AND THEIR METHODS OF USE” (The Trustees of Indiana University, priority 2021, published 2024).

One experiment deals with EO771 cells. Nature of the experiment: Western blot of proteins in treated tumor cells. Type of experiment: cell-based, mouse. As for the experimental part:
Western blot analysis and mass spectrometry. Western blot analysis was conducted using known procedures. Antibodies were used against ANXA1, β-catenin, caspase 3, Lrp5, Lrp6, Runx2, Sclerostin, Snail, TGFβ, NFATc1, cathepsin K (Cell Signaling, Danvers, MA, USA), DMP1, ANXA6, CXCL5 (Abcam, Cambridge, MA, USA), M-CSF, MMP9, OPN, TPM4 (Santa Cruz, Dallas, TX, USA), WISP1 (R&D systems, Minneapolis, MN, USA), β-actin (Sigma, Saint Louis, MO, USA), LIMA1, Trail (Novus, Centennial, CO, USA), p53 and CXCL1 (Invitrogen, Carlsbad, California, USA), and DSP (ProteinTech, Rosemont, IL, USA). The expression levels of Sclerostin and Lrp5 in CM were detected by ELISA (My BioSource, San Diego, CA, USA). Proteins from A5 osteocyte CM, Y4 osteocyte CM, and osteoclast control CM (RAW264.7 cells) were analyzed by the HF Hybrid Quadrupole Orbitrap mass spectrometry. Among 549 identified proteins, 49 proteins presented higher expression levels in A5 CM than Y4 CM and control CM. Among them, 11 proteins (p53; SPARC=osteonectin; TPM1, TPM4=tropomyosin 1 & 4; ANXA1, ANXA6=annexin A1 & A6; FMOD=fibromodulin; OGN=osteoglycin; DSP=desmoplakin; AHNAK=desmoyokin; and LIMA1=[…] domain actin-binding protein 1) were identified as potential tumor suppressors.
(§1) Western blot analysis and protein array analysis. Western blot analysis was conducted using the procedure previously described. Antibodies against Lrp5, Runx2, Snail, TGFβ, sclerostin, Calr, p-eIF2α, eIF2α (Cell Signaling, Danvers, MA, USA), LIF, Trail (Novus Biologicals, Centennial, CO, USA), MMP9, NFATc1, cathepsin K (Santa Cruz Biotechnology, Dallas, TX, USA), p53, CXCL2, Ppib (Invitrogen, Carlsbad, CA, USA), Hsp90ab1 (Abcam, Cambridge, UK), and β-actin (Sigma, Saint Louis, MO, USA) were used. A proteome profiler mouse XL cytokine array kit (R&D Systems, Minneapolis, MN, USA) was also employed, and the expression of 111 cytokines and chemokines in MSC-derived CM was determined.
Spheroid assay, plasmid transfection, and Western blot analysis. […]

In experiment [1] the test system is 4T1.2 mammary tumor cells. Nature of the experiment: MTT viability assay. Type of experiment: cell-based, mouse. From the text: (§2) In vitro assays. Cellular viability was examined using an MTT assay (Invitrogen, Carlsbad, CA, USA) with the procedure previously described, as well as an EdU assay with a fluorescence-based cell proliferation kit (Thermo-Fisher, Waltham, MA, USA). The recombinant proteins employed included Filamin A, Pkm, Pdia3, Tpm4, Anxa2, Eef1a1, Cts1, Nme2, Dcn, Calr, Aldoa, Calm1, Tpm3, Ppib, Myh9, Ywhae, Hspa5, Hsp90aa1 (MBS962910, MBS8249600, MBS2010131, MBS145304, MBS2009095, MBS2033168, MBS143355, MBS145412, MBS2557309, MBS2009125, MBS8248528, MBS2018713, MBS144696, MBS2009092, MBS717396, MBS143242, MBS806904, MBS142709; MyBioSource, San Diego, CA, USA), Actin Gamma 1, Actn4, Hspa8, Vimentin (H00000071-P01, H00000081-P01, NBP1-30278, NBP2-35139; Novus, Littleton, CO, USA), and Hsp90ab1 (OPCA05157; Aviva system biology, San Diego, CA, USA). A TRANSWELL® chamber assay was conducted to detect invasive cellular motility, and a wound-healing scratch assay was utilized to evaluate 2-dimensional migratory behavior. The overexpression of Akt, Lrp5, β-catenin, Snail, Calr, and Ppib was conducted by transfecting plasmids (#10841, #115907, #31785, #31697, #51161, #36123; Addgene, Cambridge, MA, USA). […]
In general terms: Tetrazolium assays rely on reduction of a dye to a coloured formazan, in cell work by metabolically active cells.

Experiment [2] deals with 4T1.2 mammary tumor cells. Nature of the experiment: TRANSWELL invasion assay. Type of experiment: cell-based, mouse.
Excerpt: as §2

In another experiment the test system is 4T1.2 cells. The experiment can be described thus: Western blot of proteins in treated tumor cells. Type of experiment: cell-based, mouse. The method, then: as §1
In experiment [3] the test system is tumor cells (MDA-MB-231, 4T1.2, EO771) vs non-tumor cells (MSCs, MLO-A5 osteocytes). The experiment can be described thus: MTT-based tumor selectivity (MSC CMs, Calr, Ppib). Type of experiment: cell-based. Particulars: (reduction in MTT viability of tumor cells)/(reduction in non-tumor cells). As for the experimental part: Tumor-selective inhibition by MSC CMs and Calr. […] The inhibitory ratio was defined sing MTT-based viability as (reduction in MTT-based viability of tumor cells)/(reduction in MTT-based viability of non-tumor cells). […] Using three tumor cells (MDA-MB-231, 4T1.2, and EO771) and two non-tumor cells (MSCs, and MLO-A5 osteocytes), tumor selectivity for Lrp5 CM, Akt CM, Calr, and Ppib (FIG. 22) was determined. […] Akt CM also presented the tumor selectivity of 2.41±0.70.

In experiment [4] the test system is 4T1.2 mammary tumor cells. The experiment can be described thus: EdU proliferation assay. Type of experiment: cell-based, mouse. As for the experimental part: EdU assay. Approximately 2,000 cells were seeded in 96-well plates on day 1. CM was added on day 2 and cellular proliferation was examined using a fluorescence-based cell proliferation kit (CLICK-IT™ EDU ALEXA FLUOR™ 488 Imaging Kit; Thermo-Fisher, Waltham, MA, USA) on day 4. After fluorescent labeling, the number of fluorescently labeled cells was counted and the ratio to the total number of cells was determined.
as §2, with “USA).” for “USA). A TRANSWELL® chamber assay was conducted to detect invasive cellular motility, and a wound-healing scratch assay was utilized to evaluate 2-dimensional migratory behavior. The overexpression of Akt, Lrp5, β-catenin, Snail, Calr, and Ppib was conducted by transfecting plasmids (#10841, #115907, #31785, #31697, #51161, #36123; Addgene, Cambridge, MA, USA).”

B1: CXCL5: chemokine applied to EO771 cells (protein, UniProt P50228 41-132, looked up)
C-X-C motif chemokine 5: APSSVIAATELRCVCLTVTPKINPKLIANLEVIPAGPQCPTVEVIAKLKNQKEVCLDPEAPVIKKIIQKILGSDKKKAKRNALAVERTASVQ
Turning to B1, the “tumor-promoting/tumorigenic proteins (Lrp5, MMP9, Runx2, TGFβ, Snail, IL1β etc.) in EO771 cells” value with EO771 cells is on record as “increased”.

B2: HSF1: HSF1 recombinant proteins (protein, UniProt P38532 1-525, looked up)
Heat shock factor protein 1: MDLAVGPGAAGPSNVPAFLTKLWTLVSDPDTDALICWSPSGNSFHVFDQGQFAKEVLPKYFKHNNMASFVRQLNMYGFRKVVHIEQGGLVKPERDDTEFQHPCFLRGQEQLLENIKRKVTSVSTLKSEDIKIRQDSVTRLLTDVQLMKGKQECMDSKLLAMKHENEALWREVASLRQKHAQQQKVVNKLIQFLISLVQSNRILGVKRKIPLMLSDSNSAHSVPKYGRQYSLEHVHGPGPYSAPSPAYSSSSLYSSDAVTSSGPIISDITELAPTSPLASPGRSIDERPLSSSTLVRVKQEPPSPPHSPRVLEASPGRPSSMDTPLSPTAFIDSILRESEPTPAASNTAPMDTTGAQAPALPTPSTPEKCLSVACLDKNELSDHLDAMDSNLDNLQTMLTSHGFSVDTSALLDLFSPSVTMPDMSLPDLDSSLASIQELLSPQEPPRPIEAENSNPDSGKQLVHYTAQPLFLLDPDAVDTGSSELPVLFELGESSYFSEGDDYTDDPTISLLTGTEPHKAKDPTVS
B2: the “MTT-based viability of 4T1.2 cells” value in experiment [1] was “reduced”.

B3: ANXA6: annexin A6 (protein, UniProt P14824 2-673, looked up)
Annexin A6: AKIAQGAMYRGSVHDFPEFDANQDAEALYTAMKGFGSDKESILELITSRSNKQRQEICQNYKSLYGKDLIEDLKYELTGKFERLIVNLMRPLAYCDAKEIKDAISGVGTDEKCLIEILASRTNEQMHQLVAAYKDAYERDLESDIIGDTSGHFQKMLVVLLQGTRENDDVVSEDLVQQDVQDLYEAGELKWGTDEAQFIYILGNRSKQHLRLVFDEYLKTTGKPIEASIRGELSGDFEKLMLAVVKCIRSTPEYFAERLFKAMKGLGTRDNTLIRIMVSRSELDMLDIREIFRTKYEKSLYSMIKNDTSGEYKKALLKLCGGDDDAAGQFFPEAAQVAYQMWELSAVSRVELKGTVCAANDFNPDADAKALRKAMKGIGTDEATIIDIVTHRSNAQRQQIRQTFKSHFGRDLMADLKSEISGDLARLILGLMMPPAHYDAKQLKKAMEGAGTDEKTLIEILATRTNAEIRAINEAYKEDYHKSLEDALSSDTSGHFRRILISLATGNREEGGENRDQAQEDAQVAAEILEIADTPSGDKTSLETRFMTVLCTRSYPHLRRVFQEFIKKTNYDIEHVIKKEMSGDVKDAFVAIVQSVKNKPLFFADKLYKSMKGAGTDEKTLTRVMVSRSEIDLLNIRREFIEKYDKSLHQAIEGDTSGDFMKALLALCGGED
B3: the “tumor-promoting/tumorigenic proteins (Lrp5, MMP9, Runx2, TGFβ, Snail, IL1β etc.) in EO771 cells” value in the experiment on EO771 cells is reported as “reduced”.

B4: Calr: recombinant calreticulin (protein, UniProt P14211 18-416, looked up)
Calreticulin: DPAIYFKEQFLDGDAWTNRWVESKHKSDFGKFVLSSGKFYGDLEKDKGLQTSQDARFYALSAKFEPFSNKGQTLVVQFTVKHEQNIDCGGGYVKLFPSGLDQKDMHGDSEYNIMFGPDICGPGTKKVHVIFNYKGKNVLINKDIRCKDDEFTHLYTLIVRPDNTYEVKIDNSQVESGSLEDDWDFLPPKKIKDPDAAKPEDWDERAKIDDPTDSKPEDWDKPEHIPDPDAKKPEDWDEEMDGEWEPPVIQNPEYKGEWKPRQIDNPDYKGTWIHPEIDNPEYSPDANIYAYDSFAVLGLDLWQVKSGTIFDNFLITNDEAYAEEFGNETWGVTKAAEKQMKDKQDEEQRLKEEEEDKKRKEEEEAEDKEDDDDRDEDEDEEDEKEEDEEESPGQAKDEL
On to B4, for which the “TRANSWELL invasion of 4T1.2 cells” value in experiment [2] is given as “significantly inhibited”. Besides, in the experiment with 4T1.2 cells, the “phosphorylation level of eIF2α in 4T1.2 cells” value is reported as “elevated”. Besides, in the experiment on 4T1.2 cells (Western blot), the “tumor-promoting genes (Lrp5, MMP9, Runx2, TGFβ, Snail) in 4T1.2 cells” value was “suppressed”. Besides, in experiment [3], the tumor selectivity entry is on record as “higher tumor selectivity than Ppib”. The “EdU-based proliferation of 4T1.2 cells” value in experiment [4] is “significantly inhibited”. In addition, the “MTT-based viability of 4T1.2 cells” value in experiment [1] is “Significant reduction”.
